Experimental findings from the DeepSol protein solubility set are described below.

The nature of this data set: soluble on expression in E. coli; label from the status in PepcDB or PDB records.
For the sequence “RGSHHHHHHGSFTPSGTTGTTKLTVTEECQVRVGDLTVAKTRGQLTDAAPIGPVTVQALGCNARQVALKADTDNFEQGKFFLISDNNRDKLYVNIRPMDNSAWTTDNGVFYKNDVGSWGGTIGIYVDGQQTNTPPGNYTLTLTGGYWAK”, the “soluble on expression in E. coli” value is recorded as “soluble”.

“MGFDFLGFTVRQFPVGKYHSGKSSSGKLLGYKTLITPSKAKLKIHAQKIGKLIDEHKAVPQSDLIAHLNPVIRGWTNYYSCVVSKRIFNQADTTLFSQLKAWAEHRHPNKSSRWSCQKYWQTVGSDNWVFKPHNQKIRLLKHRETRLEHHHHHH”: the “soluble on expression in E. coli” value is given as “soluble”.

For “NYYERHIGDYARDTGYLSVLEHGIYCLLLDRYYATEQPIPANKAHRIARAHSKKEKSAVDVVLDEFFLLQ”, the “soluble on expression in E. coli” value is given as “not soluble”.

“MGSDKIHHHHHHMDSLDQCIVNACKNSWDKSYLAGTPNKDNCSGFVQSVAAELGVPMPRGNANAMVDGLEQSWTKLASGAEAAQKAAQGFLVIAGLKGRTYGHVAVVISGPLYRQKYPMCWCGSIAGAVGQSQGLKSVGQVWNRTDRDRLNYYVYSLASCSLPRAS”: the “soluble on expression in E. coli” value was “not soluble”.

Regarding “MTTKNTLQPTEAAYIAGFLDGDGSIYAKLIPRPDYKDIKYQVSLAISFIQRKDKFPYLQDIYDQLGKRGNLRKDRGDGIADYTIIGSTHLSIILPDLVPYLRIKKKQANRILHIINLYPQAQKNPSKFLDLVKIVDDVQNLNKRADELKSTNYDRLLEEFLKAGKIESSP”, the “soluble on expression in E. coli” value is listed as “soluble”.

Take “MGSDKIHHHHHHMSYLLRKPQSHEVSNGVKLVHEVTTSNSDLTYVEFKVLDLASGSSYTEELKKQEICIVAVTGKITVTDHESTFENIGTRESYFERKPTDSVYISNDRAFEITAVSDARVALCYSPSEKQLPTKLIKAEDNGIEHRGQFSNKRTVHNILPDSDPSANSLLVVEVYTDSGNWSSYPPHKHDQDNLPEESFLEETYYHELDPGQGFVFQRVYTDDRSIDETMTVGNENVVIVPAGYHPVGVPDGYTSYYLNVMAGPTRKWKFYNDPAHEWILER”: the “soluble on expression in E. coli” value is recorded as “not soluble”.

Regarding “MGSDKIHHHHHHMIRNKAFVVRLYPNAAQTELINRTLGSARFVYNHFLARRIAAYKESGKGLTYGQTSSELTLLKQAEETSWLSEVDKFALQNSLKNLETAYKNFFRTVKQSGKKVGFPRFRKKRTGESYRTQFTNNNIQIGEGRLKLPKLGWVKTKGQQDIQGKILNVTVRRIHEGHYEASVLCEVEIPYLPAAPKFAAGVDVGIKDFAIVTDGVRFKHEQNPKYYRSTLKRLRKAQQTLSRRKKGSARYGKAKTKLARIHKRIVNKRQDFLHKLTTSLVREYEIIGTEHLKPDNMRKNRRLALSISDAGWGEFIRQLEYKAAWYGRLVSKVSPYFPSSQLCHDCGFKNPEVKNLAVRTWTCPNCGETHDRDENAALNIRREALVAAGISDTLNAHGGYVRPASAGNGLRSENHATLVV”, the “soluble on expression in E. coli” value was “not soluble”.

In the case of “VDSVYRTRSLGVAAEGIPDQYADGEAARVWQLYIGDTRSRTAEYKAWLLGLLRQHGCHRVLDVACGTGVDSIMLVEEGFSVTSVDASDKMLKYALKERWNRRKEPAFDKWVIEEANWLTLDKDVPAGDGFDAVICLGNSFAHLPDSKGDQSEHRLALKNIASMVRPGGLLVIDHRNYDYILSTGCAPPGKNIYYKSDLTKDITTSVLTVNNKAHMVTLDYTVQVPGAGRDGAPGFSKFRLSYYPHCLASFTELVQEAFGGRCQHSVLGDFKPYRPGQAYVPCYFIHVLKKTG”, the “soluble on expression in E. coli” value is “soluble”.

Turning to “MGSDKIHHHHHHMAAKLFGIMMINVQSIELSIVNLRTLRQVERVRSDVSLGEDIYDQHTIDYDSVEQAAQALSGFVQIMNDYGVKDYHLWGSWSLSSANNADYIQDQLLVRTGLKIDWLSSSQETYLRSVAVAVHFPRFKQMITKPTYLLGINSGSVGISHYDQSNFVFSRSLRLGPVRIAEVLEDLQSSVPNYVEVLDDYISSQIVDFGRFLPGRRDQPSNVVMLGVAPFATLFRQQQSKAGVEELSKADFQALYEDVLNASDQYLMDKYEVDEEDVRLIVPELLLINELLQLTNAEKIWLGNVTVLDGLIIQEAIKLGYKKYNFNDQIVTAAKNIADRYNVEPKHRDLVTKFSLHLFDQLKPLHHLGKRERLLLQVAAIVHDVGSYIDPHQHYLHSDYILQATELMGLTDTEKRMVALISRYHSAQTPSKDIRHFGHLQVEQRLLVSKLSAILRIADALDDGRKQKIDKISVSIRNPRVIITCFAHDDLFLENWVFAQKAEFFKEVFGLTPVIKLRGVR”, the “soluble on expression in E. coli” value was “not soluble”.

As for “KATRDSSTLNVDTYVNWIKRVFRPQRLRLLERKELVVEEADYEYALGEIANVRSDAQQMLGSRIMSRPLPFIWLFGGDLSSQKELSVRVDTMVEYLHNTTDNLIFAKLMDVPPLPTTLSHWLPKDKRS”, the “soluble on expression in E. coli” value was “not soluble”.
